Laboratory results taken from the supplement of paper PMC12042874.
± gives the uncertainty stated by the source.

assay: amyloid nucleation score (Sup35N fusion, yeast selection) (log enrichment); library NNK3; higher = more nucleation; inactive = no reads after selection
In short: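 Psi-negative yeast expressed Sup35N fused to peptides of 20 random codons. They were induced 24 hours with 100 μM copper sulfate, grown 7 days at 30°C without adenine and uracil, and their plasmid inserts from input and output were Illumina-sequenced. The nucleation score is the DiMSum log enrichment of output over input reads, centred on the mode score of non-aggregating sequences. Sequences with under 100 input reads were excluded.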

Row | Substance | amyloid nucleation score
1 | FGTVAWPITFIIRMAVGSSC | 0.936 ± 0.15
2 | FGVGMALALCQRH | inactive
3 | FGVIRHERMEMWRHRSNRCV | inactive
4 | FGVTTEF | 1.23 ± 0.14
5 | FGWLTPDMKFLCTYKQRISG | inactive
6 | FHDVMKGGI | inactive
7 | FHSSFSVYCPFNSMLASV | 0.005 ± 0.58
8 | FHSSS | inactive
9 | FHVTVFWNRHNSDLMVLHR | inactive
10 | FHYCCYITAAQYYDACCVVP | inactive
11 | FHYRENVNREHSPFWSREMV | inactive
12 | FICVAIGTFCFIEMMHLIGR | 1.23 ± 0.086
13 | FIGDGSRDRRDGLLDLY | inactive
14 | FIGFSAWWNGMDNVRVLASS | -0.269 ± 0.73
15 | FIIWAMDWVFASRL | inactive
16 | FIKLKGL | inactive
17 | FIKYFANLRKFCDILSCSL | 1.27 ± 0.14
18 | FILGWCGIYSTACPNTSTGT | inactive
19 | FILSVCYARRDLTLKRTPSR | inactive
20 | FIPPSLCIITS | inactive
21 | FIQYEHNLPGTARGKCIQC | inactive
22 | FISSSSTRILQYGRYTVEIN | inactive
23 | FIWVFCD | inactive
24 | FKCTVIGDTILPNTFSLWRF | inactive
25 | FKDFIIICLAKLFGIFYDTD | inactive
26 | FKDVSVPIR | inactive
27 | FKKCVDLKHYNVSMDVRCVL | inactive

Row | Substance | amyloid nucleation score
28 | FKLRTDIAMDINVGQDLSGL | inactive
29 | FKLSMLA | inactive
30 | FKPTRSHQGSFSSVTMFLVG | 0.261 ± 0.29
31 | FKYYRSYYPYICLKSVI | inactive
32 | FLALDQISFVIRCLNI | inactive
33 | FLANGSDWIFLWFRIHVDHF | inactive
34 | FLAYGWWHYKWSGNDTLHSF | inactive
35 | FLCSTVIISNVLMRPAYYVR | inactive
36 | FLCVRSFRFVCVLFFNDIT | inactive
37 | FLDDLTLVHGRSETKKNL | inactive
38 | FLDIRMMIRRLTGGPESVSL | inactive
39 | FLGDYRILSLLFYI | 2.49 ± 0.053
40 | FLGSLVSLRCKWFVAF | 0.292 ± 0.75
41 | FLILSNEIMPLFTWANKRLE | inactive
42 | FLKYTITHLCSRPRIYLGIS | 0.16 ± 0.22
43 | FLLIILTLYASTCRAQYAFR | 1.42 ± 0.15
44 | FLMNHVLQNW | inactive
45 | FLNFSGLPGFVCPVIPSHYV | inactive
46 | FLNSCQNMQVPSGKFNSSKV | -0.122 ± 0.82
47 | FLPPKMVLFPVSEWSLDLRY | inactive
48 | FLPPTVINVVHAYRRFSSDR | 1.71 ± 0.098
49 | FLSCNTCWGMTNANLSDNFN | 2.05 ± 0.071
50 | FLSPSGVD | inactive
51 | FLTDASWGSIFWKFLRASFV | 0.621 ± 0.14
52 | FLTRIHFLCTCVRRNG | 1.37 ± 0.1
53 | FLVIPWDEEKCRLSDLFASN | inactive
54 | FLVNPVCSMVSSYCSFPSPK | 2.52 ± 0.062

Row | Substance | amyloid nucleation score
55 | FLYSVL | inactive
56 | FMFASQLMRFFHSWTVSRSS | inactive
57 | FMFVVWGYINGFGYLTGVN | inactive
58 | FMGLGLQLRLIHLSRG | inactive
59 | FMLGDAVFRFFVRNGGRIDN | inactive
60 | FMMFIL | 1.42 ± 0.1
61 | FMSSSPDSYCEKGKRQ | inactive
62 | FMTWHFENCCWCRHSRFGLL | inactive
63 | FMVGR | inactive
64 | FNAGYWGMSSKVSNESRWVY | inactive
65 | FNCGPCIVLEWYFTSVAGQG | 2.1 ± 0.071
66 | FNDVLMAVITLSVIDTLMWT | inactive
67 | FNFLVMILGITLPNNITFEH | 0.279 ± 0.17
68 | FNIMVYCNESSL | inactive
69 | FNKGYV | inactive
70 | FNKLVWNHLSGCV | inactive
71 | FNLNESSGYVKFYLNGNRPL | inactive
72 | FNRKCVSVCRVRGGICWRSQ | inactive
73 | FNSFCAYNTRHYYVVLGGIV | 1.04 ± 0.13
74 | FNSRNSVVTDLRYWSIRGLV | inactive
75 | FNVRWGWLGDLIYGGFLHVG | inactive
76 | FNWFCLFLWMRNRSKPFWTM | inactive
77 | FNWLGLGLMLGIDRDRCDNV | inactive
78 | FNWRLSSITDSSVYLPSWNL | inactive
79 | FNWTN | inactive
80 | FPHRMLRPCYESDTFPPWTG | inactive
